Measured values reported in publication PMC6436931, “Activation of the Endonuclease that Defines mRNA 3′ Ends Requires Incorporation into an 8-Subunit Core Cleavage and Polyadenylation Factor Complex” (Molecular Cell, 2019).

Key:
Pcf11;Clp1 = Pcf11;Clp1 (Saccharomyces cerevisiae;Saccharomyces …, UniProt P39081;Q08685 1-626;1-445, |); test: EMSA; EMSA: 50 nM RNA, 0.25-4.0 uM protein, protein diluted in 10 mM HEPES pH 7.9, 150 mM NaCl, 0.5 mM Mg(OAc)2, plus 1x loading dye (orange G, glycerol, EDTA); 30 min on ice; native 6% acrylamide/TBE PAGE; details: protein: recombinant;recombinant; tags: 6H;; copies: 1;1; label: 5'-FAM
Rna14;Rna15 = target: T1, Rna14;Rna15 (Saccharomyces cerevisiae;Saccharomyces …, UniProt P25298;P25299 1-677;1-296, |); test: as above; details: protein: recombinant;recombinant; tags: 6H;; chain copies: 2;2; label: 5'-FAM
T1 sequence 1: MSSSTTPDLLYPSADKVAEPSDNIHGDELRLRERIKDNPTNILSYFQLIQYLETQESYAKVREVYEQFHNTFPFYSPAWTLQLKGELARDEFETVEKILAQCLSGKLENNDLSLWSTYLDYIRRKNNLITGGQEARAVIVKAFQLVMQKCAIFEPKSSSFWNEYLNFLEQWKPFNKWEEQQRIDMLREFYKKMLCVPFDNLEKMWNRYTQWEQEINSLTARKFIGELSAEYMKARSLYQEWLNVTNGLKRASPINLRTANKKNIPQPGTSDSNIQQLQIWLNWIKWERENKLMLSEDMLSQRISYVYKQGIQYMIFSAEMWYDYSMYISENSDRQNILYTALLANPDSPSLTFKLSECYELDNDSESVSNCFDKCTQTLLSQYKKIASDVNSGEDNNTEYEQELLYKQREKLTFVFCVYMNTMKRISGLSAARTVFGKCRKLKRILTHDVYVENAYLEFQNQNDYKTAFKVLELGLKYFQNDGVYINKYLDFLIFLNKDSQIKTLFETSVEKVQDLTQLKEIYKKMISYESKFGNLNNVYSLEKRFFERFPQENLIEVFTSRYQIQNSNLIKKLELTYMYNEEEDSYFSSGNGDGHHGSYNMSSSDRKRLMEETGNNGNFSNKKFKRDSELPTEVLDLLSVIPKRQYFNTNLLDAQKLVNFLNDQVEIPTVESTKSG
T1 sequence 2: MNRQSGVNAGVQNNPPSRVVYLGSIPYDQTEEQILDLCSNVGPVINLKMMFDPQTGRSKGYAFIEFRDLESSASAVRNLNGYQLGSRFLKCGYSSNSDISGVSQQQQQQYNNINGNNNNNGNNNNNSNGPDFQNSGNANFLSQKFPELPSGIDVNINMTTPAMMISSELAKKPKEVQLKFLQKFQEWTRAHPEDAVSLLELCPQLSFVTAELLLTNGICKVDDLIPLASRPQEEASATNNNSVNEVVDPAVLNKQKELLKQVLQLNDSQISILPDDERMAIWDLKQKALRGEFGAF

Rna14;Rna15;Pcf11;Clp1 = Rna14;Rna15;Pcf11;Clp1 (Saccharomyces cerevisiae;Saccharomyces …, UniProt P25298;P25299;P39081;Q08685 1-677;1-296;1-626;1-445, |||); test: EMSA; CF IA; EMSA: 50 nM RNA, 0.25-4.0 uM protein, protein diluted in 10 mM HEPES pH 7.9, 150 mM NaCl, 0.5 mM Mg(OAc)2, plus 1x loading dye (orange G, glycerol, EDTA); 30 min on ice; native 6% acrylamide/TBE PAGE; details: protein: recombinant;recombinant;recombinant;recombinant; tags: 6H;;6H;; chain copies: 2;2;1;1; label: 5'-FAM
[1] = target: Cft1;Pfs2;Yth1;Fip1;Pap1;Cft2 (Saccharomyces cerevisiae;Saccharomyces …, UniProt Q06632;P42841;Q06102;P45976;P29468;Q12102 1-1357;1-465;1-208;1-327;1-568;1-859, |||||); test: EMSA; CPFpol + Cft2; EMSA: 50 nM RNA, 0.25-4.0 uM protein, protein diluted in 10 mM HEPES pH 7.9, 150 mM NaCl, 0.5 mM Mg(OAc)2, plus 1x loading dye (orange G, glycerol, EDTA); 30 min on ice; native 6% acrylamide/TBE PAGE; details: protein: recombinant;recombinant;recombinant;recombinant;recombinant;recombinant, tags: ;3C-SII;3C-8H, untagged in CPFpol+Cft2;;SII (Pap1-SII) when alone, untagged in CPFpol and CPFcore;SII (Cft2-SII) when alone, copies: 1;2;1;1;1;1, label: 5'-FAM

Rna14;Rna15;Pcf11;Clp1, sequence (P39081 whole entry, chain 3 of 4, one chain of several): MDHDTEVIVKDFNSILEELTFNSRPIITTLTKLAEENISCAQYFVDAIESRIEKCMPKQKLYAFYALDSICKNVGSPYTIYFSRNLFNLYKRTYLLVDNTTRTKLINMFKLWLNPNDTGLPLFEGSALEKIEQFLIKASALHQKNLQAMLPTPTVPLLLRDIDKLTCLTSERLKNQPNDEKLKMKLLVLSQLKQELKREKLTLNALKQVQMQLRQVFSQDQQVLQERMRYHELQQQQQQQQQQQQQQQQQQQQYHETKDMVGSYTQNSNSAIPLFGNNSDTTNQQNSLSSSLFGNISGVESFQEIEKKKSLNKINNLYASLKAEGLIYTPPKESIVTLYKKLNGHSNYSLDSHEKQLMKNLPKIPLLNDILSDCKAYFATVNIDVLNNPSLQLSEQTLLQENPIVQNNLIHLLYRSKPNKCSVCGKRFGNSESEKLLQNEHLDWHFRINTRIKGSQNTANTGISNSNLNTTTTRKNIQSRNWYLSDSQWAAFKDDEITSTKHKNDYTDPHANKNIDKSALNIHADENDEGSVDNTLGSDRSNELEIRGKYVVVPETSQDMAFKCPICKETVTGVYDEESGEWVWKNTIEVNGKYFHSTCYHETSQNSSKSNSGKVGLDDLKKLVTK
Rna14;Rna15;Pcf11;Clp1, sequence (Q08685 whole entry, chain 4 of 4, one chain of several): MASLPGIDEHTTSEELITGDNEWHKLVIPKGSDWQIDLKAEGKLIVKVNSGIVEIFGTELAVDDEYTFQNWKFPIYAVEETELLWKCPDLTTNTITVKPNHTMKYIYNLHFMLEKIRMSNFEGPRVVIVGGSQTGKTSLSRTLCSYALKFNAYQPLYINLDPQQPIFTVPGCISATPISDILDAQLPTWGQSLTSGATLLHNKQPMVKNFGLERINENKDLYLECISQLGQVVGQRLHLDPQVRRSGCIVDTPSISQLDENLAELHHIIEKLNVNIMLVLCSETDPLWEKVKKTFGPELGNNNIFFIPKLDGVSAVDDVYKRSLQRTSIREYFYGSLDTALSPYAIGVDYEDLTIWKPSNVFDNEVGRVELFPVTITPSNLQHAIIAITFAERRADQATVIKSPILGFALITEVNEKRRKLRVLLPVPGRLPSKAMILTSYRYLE
Pcf11;Clp1, sequence (P39081 whole entry, chain 1 of 2): as the sequence (P39081 whole entry, chain 3 of 4, one chain of several) above
Pcf11;Clp1, sequence (Q08685 whole entry, chain 2 of 2): as the sequence (Q08685 whole entry, chain 4 of 4, one chain of several) above

| Binder | binding result (Pcf11;Clp1) | binding result (Rna14;Rna15) | binding result (Rna14;Rna15;Pcf11;Clp1) | binding result [1] |
| --- | --- | --- | --- | --- |
| AAAAAAAAAAAAAAA (ssRNA) [A15] | no binding | no binding | no binding | binds |
| CCCCCCCCCCCCCCC (ssRNA) [C15] | no binding | no binding | no binding | no binding |
| AAGAACGUUAUUUAUAUUUCAAAUUUUUCUUUUUU (ssRNA) [CYC1d EMSA probe] | binds | binds | binds | binds |
| CGUUAUUUAUAUUUCAAAUUUUUCU (ssRNA) [CYC1f EMSA probe] | binds | binds | binds | binds |
| UUUUUUUUUUUUUUU (ssRNA) [U15] | no binding | binds | binds | no binding |
| GGGGGGGGGGGGGGG (ssRNA) [G15] | no binding | binds | binds | binds |
